# Test results as given in US20200338219A1 (ACTINIUM PHARMACEUTICALS, published 2020).
# B1: murine anti-CD45 monoclonal antibody BC8 (antibody, mouse IgG1, kappa, V domains shown)
# VH: EVKLLESGGGLVQPGGSLKLSCAASGFDFSRYWMSWVRQAPGKGLEWIGEINPTSSTINFTPSLKDKVFISRDNAKNTLYLQMSKVRSEDTALYYCARGNYYRYGDAMDYWGQGTSVTVSS
# VL: DIALTQSPASLAVSLGQRATISCRASKSVSTSGYSYLHWYQQKPGQPPKLLIYLASNLESGVPARFSGSGSGTDFTLNIHPVEEEDAATYYCQHSRELPFTFGSGTKLEIKR
# modifications: position 141 is found to be a mixture of ASP and ASN in the purified protein (deamidation of ASN-141)
# notes: Purified from hybridoma ATCC HB-10507; also called BC8 MAb; anti-CD45 immunoglobulin BC8
# B2: BC8 Fab (Fab, V domains shown)
# VH: B1 VH
# VL: B1 VL
# notes: It was detected with an anti-mouse F(ab')2 secondary antibody; also called Test Fab
# Experiments:
# [1] = molecular target: T1, human CD45 protein, wild-type (WT) construct expressed on HEK-293T cells (human, UniProt P08575 26-1306); assay: high-throughput flow cytometry on HEK-293T cells expressing WT CD45 against vector alone, 5.00 µg/ml
# T1 construct: also called target protein (WT); PTPRC
# T1 sequence: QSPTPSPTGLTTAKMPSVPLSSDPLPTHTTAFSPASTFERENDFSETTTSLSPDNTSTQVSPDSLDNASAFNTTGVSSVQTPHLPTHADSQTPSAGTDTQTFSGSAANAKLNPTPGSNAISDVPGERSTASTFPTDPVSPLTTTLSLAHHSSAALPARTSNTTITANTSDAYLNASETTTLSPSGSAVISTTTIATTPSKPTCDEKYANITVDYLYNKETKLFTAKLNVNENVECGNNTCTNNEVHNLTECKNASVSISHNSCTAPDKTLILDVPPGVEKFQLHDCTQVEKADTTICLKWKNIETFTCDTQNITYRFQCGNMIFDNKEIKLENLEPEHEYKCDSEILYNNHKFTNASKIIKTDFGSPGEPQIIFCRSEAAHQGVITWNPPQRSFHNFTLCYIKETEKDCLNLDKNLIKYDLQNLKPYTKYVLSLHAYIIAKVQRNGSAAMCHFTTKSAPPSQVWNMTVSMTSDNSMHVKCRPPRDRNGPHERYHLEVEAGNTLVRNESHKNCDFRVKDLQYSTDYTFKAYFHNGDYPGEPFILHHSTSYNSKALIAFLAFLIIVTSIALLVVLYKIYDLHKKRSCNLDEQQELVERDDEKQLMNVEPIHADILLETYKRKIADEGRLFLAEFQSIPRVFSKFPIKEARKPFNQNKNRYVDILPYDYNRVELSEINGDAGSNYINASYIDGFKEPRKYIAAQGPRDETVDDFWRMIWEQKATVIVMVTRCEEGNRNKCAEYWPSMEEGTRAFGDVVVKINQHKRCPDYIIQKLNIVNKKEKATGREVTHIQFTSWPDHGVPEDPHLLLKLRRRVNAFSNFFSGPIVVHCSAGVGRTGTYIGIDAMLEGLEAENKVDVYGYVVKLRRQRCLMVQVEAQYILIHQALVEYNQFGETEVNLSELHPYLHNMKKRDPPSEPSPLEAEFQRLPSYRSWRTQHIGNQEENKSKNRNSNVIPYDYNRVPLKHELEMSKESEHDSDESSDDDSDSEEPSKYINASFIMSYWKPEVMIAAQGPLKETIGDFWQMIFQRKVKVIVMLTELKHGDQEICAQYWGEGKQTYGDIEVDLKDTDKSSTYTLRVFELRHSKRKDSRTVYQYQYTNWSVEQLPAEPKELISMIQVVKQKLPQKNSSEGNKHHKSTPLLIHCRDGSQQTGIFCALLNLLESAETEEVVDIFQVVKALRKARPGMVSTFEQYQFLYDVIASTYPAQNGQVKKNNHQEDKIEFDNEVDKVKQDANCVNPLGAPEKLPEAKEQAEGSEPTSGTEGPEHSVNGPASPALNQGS
# Protocol: (§1) Cells were transfected with a wild-type (WT) construct of the target protein or with vector alone in 384-well format, followed by detection of cellular expression via high-throughput flow cytometry. Serial dilutions of each MAb were tested for immunoreactivity against cells expressing target protein (WT) or vector alone.
# [2] = molecular target: T1, human CD45 protein, wild-type (WT) …; assay: high-throughput flow cytometry on HEK-293T cells expressing WT CD45 against vector alone, 5.0 ug/ml
# Protocol: as §1
Binder,Signal:Background [1],Signal:Background [2]
B1,9 signal:background ratio,–
B2,–,6 signal:background ratio
